In publication PMC11969553, “Expression of Human β3GalT5–1 in Insect Cells as Active Glycoforms for the Efficient Synthesis of Cancer-Associated Globo-Series Glycans” (Journal of the American Chemical Society, 2025):

What was measured:
[1] = galactosyltransferase activity assay (Figure S6E); details: control: untreated Sf9-expressed enzyme (paucimannose glycoforms)
[2] = Michaelis–Menten kinetics by UDP release; details: glycan changed form; control: Sf9 insect cell-expressed enzyme (paucimannose)
[3] = substrate: C=CCO[C@@H]1O[C@H](CO)[C@@H](O[C@@H]2O[C@H](CO)[C@H](O[C@H]3O[C@H](CO)[C@H](O)[C@H](O[C@@H]4O[C@H](CO)[C@H](O)[C@H](O)[C@H]4NC(C)=O)[C@H]3O)[C@H](O)[C@H]2O)[C@H](O)[C@H]1O; experiment: UDP release, Michaelis-Menten fit; assay type: biochemical, Homo sapiens; details: 0.1 mM UDP-Gal, HEPES, 0.1 mM MnCl2, 0-4 mM substrate; pH 7.0
Excerpt: UDP release, Michaelis-Menten fit on soluble β3GalT5-1 (insect)

[4] = substrate: C=CCO[C@@H]1O[C@H](CO)[C@@H](O[C@@H]2O[C@H](CO)[C@H](O[C@H]3O[C@H](CO)[C@H](O)[C@H](O[C@@H]4O[C@H](CO)[C@H](O)[C@H](O)[C@H]4NC(C)=O)[C@H]3O)[C@H](O)[C@H]2O)[C@H](O)[C@H]1O; experiment: UDP release, Michaelis-Menten fit; assay type: biochemical, Homo sapiens; details: 10 mM UDP-sugar (UDP-Gal) fixed, 20 mM HEPES pH 7.4, 0.1 mM MnCl2
Excerpt: (§1) UDP release, Michaelis-Menten fit on soluble β3GalT5-1 (HEK293)

[5] = substrate: O=c1ccn([C@@H]2O[C@H](COP(=O)(O)OP(=O)(O)O[C@H]3O[C@H](CO)[C@H](O)[C@H](O)[C@H]3O)[C@@H](O)[C@H]2O)c(=O)[nH]1; experiment: UDP release, Michaelis-Menten fit; assay type: biochemical, Homo sapiens; details: 2 mM Gb4 glycan fixed, 20 mM HEPES pH 7.4, 0.1 mM MnCl2
Excerpt: as §1

Protein	Km [4]	kcat [4]	kcat/Km [4]	Km [5]	kcat [5]	kcat/Km [5]	other results
β3GalT5–1 (soluble domain): PNGase F (protein) parent chain: MAFPKMRLMYICLLVLGALCLYFSMYSLNPFKEQSFVYKKDGNFLKLPDTDCRQTPPFLVLLVTSSHKQLAERMAIRQTWGKERMVKGKQLKTFFLLGTTSSAAETKEVDQESQRHGDIIQKDFLDVYYNLTLKTMMGIEWVHRFCPQAAFVMKTDSDMFINVDYLTELLLKKNRTTRFFTGFLKLNEFPIRQPFSKWFVSKSEYPWDRYPPFCSGTGYVFSGDVASQVYNVSKSVPYIKLEDVFVGLCLERLNIRLEELHSQPTFFPGGLRFSVCLFRRIVACHFIKPRTLLDYWQALENSRGEDCPPV	–	–	–	–	–	–	enzymatic_activity, fold_change ([1]; glycan lost): decreases
β3GalT5–1 (soluble domain): kifunensine then Endo-H (mono-GlcNAc) (protein) parent chain: MAFPKMRLMYICLLVLGALCLYFSMYSLNPFKEQSFVYKKDGNFLKLPDTDCRQTPPFLVLLVTSSHKQLAERMAIRQTWGKERMVKGKQLKTFFLLGTTSSAAETKEVDQESQRHGDIIQKDFLDVYYNLTLKTMMGIEWVHRFCPQAAFVMKTDSDMFINVDYLTELLLKKNRTTRFFTGFLKLNEFPIRQPFSKWFVSKSEYPWDRYPPFCSGTGYVFSGDVASQVYNVSKSVPYIKLEDVFVGLCLERLNIRLEELHSQPTFFPGGLRFSVCLFRRIVACHFIKPRTLLDYWQALENSRGEDCPPV	–	–	–	–	–	–	enzymatic_activity, fold_change ([1]; glycan lost): increases
β3GalT5–1 (soluble domain): expression in HEK293 (complex-type glycoforms) (protein) parent chain: MAFPKMRLMYICLLVLGALCLYFSMYSLNPFKEQSFVYKKDGNFLKLPDTDCRQTPPFLVLLVTSSHKQLAERMAIRQTWGKERMVKGKQLKTFFLLGTTSSAAETKEVDQESQRHGDIIQKDFLDVYYNLTLKTMMGIEWVHRFCPQAAFVMKTDSDMFINVDYLTELLLKKNRTTRFFTGFLKLNEFPIRQPFSKWFVSKSEYPWDRYPPFCSGTGYVFSGDVASQVYNVSKSVPYIKLEDVFVGLCLERLNIRLEELHSQPTFFPGGLRFSVCLFRRIVACHFIKPRTLLDYWQALENSRGEDCPPV	–	–	–	–	–	–	enzymatic_activity, kcat_Km [2]: no change, 5.2 ± 3.0 vs 5.3 ± 1.0
β3GalT5–1 (soluble domain): kifunensine (high mannose glycoforms) (protein) parent chain: MAFPKMRLMYICLLVLGALCLYFSMYSLNPFKEQSFVYKKDGNFLKLPDTDCRQTPPFLVLLVTSSHKQLAERMAIRQTWGKERMVKGKQLKTFFLLGTTSSAAETKEVDQESQRHGDIIQKDFLDVYYNLTLKTMMGIEWVHRFCPQAAFVMKTDSDMFINVDYLTELLLKKNRTTRFFTGFLKLNEFPIRQPFSKWFVSKSEYPWDRYPPFCSGTGYVFSGDVASQVYNVSKSVPYIKLEDVFVGLCLERLNIRLEELHSQPTFFPGGLRFSVCLFRRIVACHFIKPRTLLDYWQALENSRGEDCPPV	–	–	–	–	–	–	enzymatic_activity, fold_change ([1]; glycan changed form): increases
soluble β3GalT5-1 (insect) (Homo sapiens) (protein, crystal: Phe31-Pro308 stated, Asp41-Pro308 visible) NPFKEQSFVYKKDGNFLKLPDTDCRQTPPFLVLLVTSSHKQLAERMAIRQTWGKERMVKGKQLKTFFLLGTTSSAAETKEVDQESQRHGDIIQKDFLDVYYNLTLKTMMGIEWVHRFCPQAAFVMKTDSDMFINVDYLTELLLKKNRTTRFFTGFLKLNEFPIRQPFSKWFVSKSEYPWDRYPPFCSGTGYVFSGDVASQVYNVSKSVPYIKLEDVFVGLCLERLNIRLEELHSQPTFFPGGLRFSVCLFRRIVACHFIKPRTLLDYWQALENSRGEDCPPV	–	–	–	–	–	–	Km [3]: 660 ± 400 µM; kcat [3]: 0.0583 ± 0.00667 s⁻¹; kcat/Km [3]: 88.3 ± 16.7 M⁻¹ s⁻¹
soluble β3GalT5-1 (HEK293) (Homo sapiens) (protein, soluble luminal domain N29-V310, no TM; expressed in HEK293 cells, complex-type N-glycans) NPFKEQSFVYKKDGNFLKLPDTDCRQTPPFLVLLVTSSHKQLAERMAIRQTWGKERMVKGKQLKTFFLLGTTSSAAETKEVDQESQRHGDIIQKDFLDVYYNLTLKTMMGIEWVHRFCPQAAFVMKTDSDMFINVDYLTELLLKKNRTTRFFTGFLKLNEFPIRQPFSKWFVSKSEYPWDRYPPFCSGTGYVFSGDVASQVYNVSKSVPYIKLEDVFVGLCLERLNIRLEELHSQPTFFPGGLRFSVCLFRRIVACHFIKPRTLLDYWQALENSRGEDCPPV	1400 ± 200 µM	0.0448 ± 0.00333 s⁻¹	32 ± 16.7 M⁻¹ s⁻¹	140 ± 40 µM	0.125 ± 0.0117 s⁻¹	870 ± 293 M⁻¹ s⁻¹	–
soluble β3GalT5-1 (HEK293) (Homo sapiens; Q69A) (protein, soluble luminal domain N29-V310, no TM; expressed in HEK293 cells, complex-type N-glycans) NPFKEQSFVYKKDGNFLKLPDTDCRQTPPFLVLLVTSSHKALAERMAIRQTWGKERMVKGKQLKTFFLLGTTSSAAETKEVDQESQRHGDIIQKDFLDVYYNLTLKTMMGIEWVHRFCPQAAFVMKTDSDMFINVDYLTELLLKKNRTTRFFTGFLKLNEFPIRQPFSKWFVSKSEYPWDRYPPFCSGTGYVFSGDVASQVYNVSKSVPYIKLEDVFVGLCLERLNIRLEELHSQPTFFPGGLRFSVCLFRRIVACHFIKPRTLLDYWQALENSRGEDCPPV	1210 ± 300 µM	0.012 ± 0.00117 s⁻¹	10 ± 3.33 M⁻¹ s⁻¹	300 ± 50 µM	0.0497 ± 0.00333 s⁻¹	165 ± 63.3 M⁻¹ s⁻¹	–
soluble β3GalT5-1 (HEK293) (Homo sapiens; S66A) (protein, soluble luminal domain N29-V310, no TM; expressed in HEK293 cells, complex-type N-glycans) NPFKEQSFVYKKDGNFLKLPDTDCRQTPPFLVLLVTSAHKQLAERMAIRQTWGKERMVKGKQLKTFFLLGTTSSAAETKEVDQESQRHGDIIQKDFLDVYYNLTLKTMMGIEWVHRFCPQAAFVMKTDSDMFINVDYLTELLLKKNRTTRFFTGFLKLNEFPIRQPFSKWFVSKSEYPWDRYPPFCSGTGYVFSGDVASQVYNVSKSVPYIKLEDVFVGLCLERLNIRLEELHSQPTFFPGGLRFSVCLFRRIVACHFIKPRTLLDYWQALENSRGEDCPPV	1200 ± 200 µM	0.0777 ± 0.005 s⁻¹	64.8 ± 31.7 M⁻¹ s⁻¹	350 ± 100 µM	0.276 ± 0.0417 s⁻¹	781 ± 408 M⁻¹ s⁻¹	–
soluble β3GalT5-1 (HEK293) (Homo sapiens; Q69A/S66A) (protein, soluble luminal domain N29-V310, no TM; expressed in HEK293 cells, complex-type N-glycans) NPFKEQSFVYKKDGNFLKLPDTDCRQTPPFLVLLVTSAHKALAERMAIRQTWGKERMVKGKQLKTFFLLGTTSSAAETKEVDQESQRHGDIIQKDFLDVYYNLTLKTMMGIEWVHRFCPQAAFVMKTDSDMFINVDYLTELLLKKNRTTRFFTGFLKLNEFPIRQPFSKWFVSKSEYPWDRYPPFCSGTGYVFSGDVASQVYNVSKSVPYIKLEDVFVGLCLERLNIRLEELHSQPTFFPGGLRFSVCLFRRIVACHFIKPRTLLDYWQALENSRGEDCPPV	1110 ± 300 µM	0.00783 ± 0.000833 s⁻¹	7 ± 3.33 M⁻¹ s⁻¹	320 ± 90 µM	0.0273 ± 0.00333 s⁻¹	156 ± 45 M⁻¹ s⁻¹	–
soluble β3GalT5-1 (HEK293) (Homo sapiens; Q69M) (protein, soluble luminal domain N29-V310, no TM; expressed in HEK293 cells, complex-type N-glycans) NPFKEQSFVYKKDGNFLKLPDTDCRQTPPFLVLLVTSSHKMLAERMAIRQTWGKERMVKGKQLKTFFLLGTTSSAAETKEVDQESQRHGDIIQKDFLDVYYNLTLKTMMGIEWVHRFCPQAAFVMKTDSDMFINVDYLTELLLKKNRTTRFFTGFLKLNEFPIRQPFSKWFVSKSEYPWDRYPPFCSGTGYVFSGDVASQVYNVSKSVPYIKLEDVFVGLCLERLNIRLEELHSQPTFFPGGLRFSVCLFRRIVACHFIKPRTLLDYWQALENSRGEDCPPV	420 ± 300 µM	0.0107 ± 0.00167 s⁻¹	25.3 ± 8.33 M⁻¹ s⁻¹	210 ± 50 µM	0.0585 ± 0.005 s⁻¹	282 ± 103 M⁻¹ s⁻¹	–
soluble β3GalT5-1 (HEK293) (Homo sapiens; Q69M/S66A) (protein, soluble luminal domain N29-V310, no TM; expressed in HEK293 cells, complex-type N-glycans) NPFKEQSFVYKKDGNFLKLPDTDCRQTPPFLVLLVTSAHKMLAERMAIRQTWGKERMVKGKQLKTFFLLGTTSSAAETKEVDQESQRHGDIIQKDFLDVYYNLTLKTMMGIEWVHRFCPQAAFVMKTDSDMFINVDYLTELLLKKNRTTRFFTGFLKLNEFPIRQPFSKWFVSKSEYPWDRYPPFCSGTGYVFSGDVASQVYNVSKSVPYIKLEDVFVGLCLERLNIRLEELHSQPTFFPGGLRFSVCLFRRIVACHFIKPRTLLDYWQALENSRGEDCPPV	1650 ± 400 µM	0.0248 ± 0.00167 s⁻¹	15 ± 6.67 M⁻¹ s⁻¹	270 ± 60 µM	0.0773 ± 0.00667 s⁻¹	284 ± 113 M⁻¹ s⁻¹	–
